Literature values as cited in patent US20260217837A1, “FGFR3 BINDING MOLECULES AND METHODS OF USE THEREOF” (Regeneron Pharmaceuticals, Inc., priority 2023, published 2026).
Read-outs that look alike come from different tables or passages of the source.

System: FGFR3
[1] = Table T-1, exemplary FGFR3 parental antibodies of cited publications
[2] = Exemplary FGFR3 D3 binding sequences, antibodies of cited PCT publications

B1: FGA0005: anti-FGFR3 (S249C mutant) antibody of WO 2021/010326 A1; SEQ ID NO: 86/87 (antibody, V domains shown)
VH: QSLEESGGRLVTPGTPLTLTCTASGFSLSTYWICWVRQAPGEGLEWIGYISSSGNTYYASWAKGRFTISKTSSTTVDLKMTSLTTEDTATYFCGGHNSDYITGWALDPWGPGTLVTVSS
VL: AAVLTQTASPMSAAVGGTVTINCQSSKSVYRDKWLSWFQQKPGQPPKLLIYGASNLASGVSSRFKGSGSGTQFTLTISDVQCDDAATYYCLGGYSDNSEDAFGGGTEVVVK
[1]
  Activity: Antagonistic

B2: FGA0007: anti-FGFR3 (S249C mutant) antibody of WO 2021/010326 A1; SEQ ID NO: 88/89 (antibody, V domains shown)
VH: QSVEESGGRLVTPGTPLTLTCTVSGFSLSSYPMSWVRQAPGKGLEWIGIISSSGRTYYASWAKGRFTISKASSTTAALKMTSLTTEDTATYFCARGGVYKYDDYGDYVLNLWGRGTLVTVSS
VL: AIEMTQTPFSVSAAVGGTVTINCQASENIYSNLAWYQQKPGQPPKLLIYAASYLASGVPSRFKGSGSGTDYTLTISGVQCADAATYYCQCTLYSSTYGVAFGGGTEVVVK
[1]
  Activity: Antagonistic

B3: MS-Pro-2: anti-FGFR3 Ig-like domain 2 antibody of WO 2002/102972 A2; SEQ ID NO: 24/25 (antibody, V domains shown)
VH: QVQLVQSGAEVKKPGASVKVSCKASGYTFTSYYMHWVRQAPGQGLEWMGWINPNSGGTNYAQKFQGRVTMTRDTSISTAYMELSSLRSEDTAVYYCARDFLGYEFDYWGQGTLVTVSS
VL: DIELTQPPSVSVAPGQTARISCSGDALGDKYASWYQQKPGQAPVLVIYDDSDRPSGIPERFSGSNSGNTATLTISGTQAEDEADYYCQSYDYSADYVFGGGTKLTVLGQ
[1]
  Activity: Antagonistic

B4: MS-Pro-26: anti-FGFR3 Ig-like domain 3 antibody of WO 2002/102972 A2; SEQ ID NO: 36/37 (antibody, V domains shown)
VH: QVQLVQSGAEVKKPGASVKVSCKASGYTFTSYYMHWVRQAPGQGLEWMGWINPNSGGTNYAQKFQGRVTMTRDTSISTAYMELSSLRSEDTAVYYCARGYWYAYFTYINYGYFDNWGQGTLVTVSS
VL: DIALTQPASVSGSPGQSITISCTGTSSDVGGYNYVSWYQQHPGKAPKLMIYDVSNRPSGVSNRFSGSKSGNTASLTISGLQAEDEADYYCQSYDNNSDWFGGGTKLTVLGQ
[2]
  Activity: Antagonistic
[1]
  Activity: Antagonistic

B5: MS-Pro-28: anti-FGFR3 Ig-like domain 3 antibody of WO 2002/102972 A2; SEQ ID NO: 38/39 (antibody, V domains shown)
VH: QVQLVQSGAEVKKPGSSVKVSCKASGGTFSSYAISWVRQAPGQGLEWMGGIIPIFGTANYAQKFQGRVTITADESSTAYMELSSLRSEDTAVYYCARGGGWVSHGYYYLFDLWGQGTLVTVSS
VL: DIQMTQSPSSLSASVGDRVTITCRASQGISSYLAWYQQKPGKAPKLLIYAASSLQSGVPSRFSGSGSGTDFTLTISSLQPEDFAVYYCFQYGSIPPTFGQGTKVEIKRT
[2]
  Activity: Antagonistic
[1]
  Activity: Antagonistic

B6: MS-Pro-29: anti-FGFR3 Ig-like domain 3 antibody of WO 2002/102972 A2; SEQ ID NO: 40/41 (antibody, V domains shown)
VH: QVQLVQSGAEVKKPGASVKVSCKASGYTFTSYYMHWVRQAPGQGLEWMGWINPNSGGTNYAQKFQGRVTMTRDTSISTAYMELSSLRSEDTAVYYCARTWQYSYFYYLDGGYYFDIWGQGTLVTVSS
VL: DIVLTQSPATLSLSPGERATLSCRASQSVSSSYLAWYQQKPGQAPRLLIYGASSRATGVPARFSGSGSGTDFTLTISSLEPEDFATYYCQQTNNAPVTFGQGTKVEIKRT
[2]
  Activity: Antagonistic
[1]
  Activity: Antagonistic
